PMC4151697 (Biochemistry, 2014)

Legend:
[1] = target: the molecule itself; assay: SEC
[2] = target: the molecule itself; assay: light scattering
[3] = target: the molecule itself; assay: SEC; remark: listed apart in the source

B1: Cp149-C61S (Cp149 with C61 mutated to serine) (domain or fragment, hepatitis B virus, UniProt P03147 1-149, looked up)
chain: MDIDPYKEFGATVELLSFLPSDFFPSVRDLLDTAAALYRDALESPEHCSPHHTALRQAILSWGDLMTLATWVGTNLEDPASRDLVVSYVNTNVGLKFRQLLWFHISCLTFGRETVLEYLVSFGVWIRTPPAYRPPNAPILSTLPETTVV
pseudocritical concentration [1]: 5.9 µM

B2: Cp149ox (fully oxidized Cp149 dimer with the intradimer C61–C61 disulfide) (domain or fragment, hepatitis B virus, UniProt P03147 1-149, looked up)
chain: MDIDPYKEFGATVELLSFLPSDFFPSVRDLLDTAAALYRDALESPEHCSPHHTALRQAILCWGDLMTLATWVGTNLEDPASRDLVVSYVNTNVGLKFRQLLWFHISCLTFGRETVLEYLVSFGVWIRTPPAYRPPNAPILSTLPETTVV
modifications: intradimer C61–C61 disulfide (fully oxidized)
amount of capsid relative to Cp149red [2]: ~40%
fold slower elongation rate constant than Cp149red [2]: 1.7 fold
Kd [3]: 4 ± 0.2 µM

B3: Cp149red (reduced HBV core protein assembly domain, amino acids 1–149, homodimer) (domain or fragment, hepatitis B virus, UniProt P03147 1-149, looked up)
chain: MDIDPYKEFGATVELLSFLPSDFFPSVRDLLDTAAALYRDALESPEHCSPHHTALRQAILCWGDLMTLATWVGTNLEDPASRDLVVSYVNTNVGLKFRQLLWFHISCLTFGRETVLEYLVSFGVWIRTPPAYRPPNAPILSTLPETTVV
pseudocritical concentration [1]: 4.7 µM

B4: Cp149re-red (partially re-reduced Cp149ox) (domain or fragment, hepatitis B virus, UniProt P03147 1-149, looked up)
chain: MDIDPYKEFGATVELLSFLPSDFFPSVRDLLDTAAALYRDALESPEHCSPHHTALRQAILCWGDLMTLATWVGTNLEDPASRDLVVSYVNTNVGLKFRQLLWFHISCLTFGRETVLEYLVSFGVWIRTPPAYRPPNAPILSTLPETTVV
modifications: intradimer C61–C61 disulfide in most dimers (only ∼20% of Cp149ox could be reduced)
pseudocritical concentration [1]: 6.5 µM
